Measurements: the supplement of paper PMC9732359
± gives the uncertainty stated by the source.

Test: protein stability index of a GFP-peptide fusion (yeast GPS) (PSI 1-4); higher = more stable; sorted into four equal gates, so the index is relative within each strain
In short: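 Plasmids isolated from each sorting gate were PCR-amplified and Illumina-sequenced, and barcodes assigned the reads to strains. The gates, four of equal size, were set by GFP/Cherry fluorescence ratio on mid-log cultures in leucine-free medium. These cultures were yeast carrying a pooled library of tiled 17-residue yeast protein peptides fused downstream of GFP on a plasmid that also expresses Cherry. The protein stability index is the sum of every gate's read frequency times its gate number.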

Row | Sequence | protein stability index (doa10∆) | protein stability index (pdr5∆) | protein stability index (san1∆) | protein stability index (ubr1∆)
1 | ARLPPRATNCRKRKCGH [RPL40A] | 2.98 ± 0.094 | 3.3 ± 0.15 | 3.2 ± 0.1 | 3.14 ± 0.11
2 | ARNLYIIAVKGSGSRLN [RPL23A] | 1.27 ± 0.041 | 1.19 ± 0.044 | 1.22 ± 0.088 | 1.35 ± 0.042
3 | ARTAANSIYCPTQTVAE [RPN6] | 2.63 ± 0.062 | 1.76 ± 0.067 | 1.42 ± 0.11 | 2.04 ± 0.045
4 | ASDMSDEDIITIFKYLT [CDC53] | 2.84 ± 0.14 | 3.09 ± 0.13 | 3.23 ± 0.082 | 3.2 ± 0.061
5 | ASELDESKDSIQDLIVK [SMC3] | 3.3 ± 0.085 | 3.04 ± 0.12 | 3.18 ± 0.13 | 3.33 ± 0.14
6 | ASEVATHSKLFADKKRD [PRP8] | 2.51 ± 0.063 | 2.69 ± 0.073 | 2.31 ± 0.079 | 2.56 ± 0.068
7 | ASEYIETLGLKYLGLKP [FAS1] | 3.27 ± 0.095 | 3.35 ± 0.093 | 3.26 ± 0.074 | 3.06 ± 0.089
8 | ASFFFMVMFMHMAKGLY [COB] | 1.86 ± 0.046 | 1.58 ± 0.038 | 1.67 ± 0.08 | 1.4 ± 0.037
9 | ASGFGFGGSQPNSGTAT [YGR119C/NUP57] | 3.19 ± 0.14 | 2.74 ± 0.086 | 2.4 ± 0.11 | 2.87 ± 0.094
10 | ASGSINRKVLQALEKIG [RPS19A] | 1.39 ± 0.071 | 2 ± 0.12 | 1.67 ± 0.11 | 1.99 ± 0.066
11 | ASHNEKDQDSQIELSCN [SRP72] | 2.85 ± 0.079 | 2.41 ± 0.079 | 2.9 ± 0.051 | 3.1 ± 0.058
12 | ASIGQAAEQQSKAFKES [SRP54] | 3.45 ± 0.19 | 3.33 ± 0.17 | 3.14 ± 0.096 | 3.16 ± 0.082
13 | ASKKFGKICLILTRLNG [SSN2] | 1.99 ± 0.17 | 2.14 ± 0.27 |  | 
14 | ASKSGKLTQKLVTAGVA [CYT1] | 1.85 ± 0.068 | 1.83 ± 0.057 | 2.45 ± 0.062 | 1.95 ± 0.048
15 | ASLHSKELTRIPGEEVE [MED4] | 2.97 ± 0.12 | 3.29 ± 0.18 | 3.03 ± 0.12 | 
16 | ASLNALKESIKNSTSSM [RPN1] | 3.07 ± 0.087 | 3.25 ± 0.098 | 3.06 ± 0.063 | 3.16 ± 0.076
17 | ASLQQQQQQDLQQQQQV [SNF6] | 2.66 ± 0.26 | 2.7 ± 0.17 |  | 2.69 ± 0.21
18 | ASRHGQKGTIGITYRRE [RPB2] | 2.53 ± 0.08 | 1.84 ± 0.051 | 2.39 ± 0.082 | 2.22 ± 0.051
19 | ASSKAVTRGISVLKDSD [PRE1] | 2.4 ± 0.058 | 2.76 ± 0.05 | 2.89 ± 0.051 | 2.67 ± 0.052
20 | ASSSAKLIEKKSAYANT [SMC2] | 2.82 ± 0.1 | 2.55 ± 0.055 | 2.73 ± 0.079 | 2.79 ± 0.042
21 | ASSWAKKIAQRERRAAL [RPL14A] | 2.53 ± 0.099 | 3.32 ± 0.14 | 2.62 ± 0.18 | 2.22 ± 0.079
22 | ATAIGKGSVAAKTFLEK [PRE8] | 2.13 ± 0.2 | 1.28 ± 0.17 |  | 
23 | ATDVEARAVQDNGESAF [RPL13A] | 3.16 ± 0.11 | 2.99 ± 0.088 | 1.56 ± 0.094 | 2.85 ± 0.094
24 | ATFSVSQASSDLGETFR [CSL4] | 3.04 ± 0.086 | 2.64 ± 0.064 | 3.23 ± 0.065 | 2.57 ± 0.041
25 | ATLYIPKALRFDRLVAG [FAS2] | 2.88 ± 0.22 | 1.23 ± 0.068 |  | 1.44 ± 0.09
26 | ATPGRLIDSLENHLLVM [PRP28] | 2.66 ± 0.067 | 2.37 ± 0.05 | 2.06 ± 0.11 | 2.1 ± 0.06
27 | ATPQDAQFYLGKRIAYV [RPL33A] | 2.29 ± 0.082 | 2.66 ± 0.07 | 2.57 ± 0.074 | 2.7 ± 0.075

Row | Sequence | protein stability index (doa10∆) | protein stability index (pdr5∆) | protein stability index (san1∆) | protein stability index (ubr1∆)
28 | ATQSGGVRPFGVSLLIA [PRE8] | 1.29 ± 0.071 | 1.62 ± 0.071 | 1.4 ± 0.17 | 1.51 ± 0.064
29 | ATSFSRKKARTFDSSWN [FAS2] | 2.22 ± 0.17 | 2.99 ± 0.18 | 2.65 ± 0.16 | 3.05 ± 0.076
30 | ATTSVMMVNNQTMQLIK [SRB6] | 3.09 ± 0.16 | 2.1 ± 0.17 | 2.12 ± 0.1 | 
31 | AVAASSTKTGTPSDLSE [POP1] | 3.3 ± 0.084 | 3.26 ± 0.077 | 3.41 ± 0.045 | 3.33 ± 0.035
32 | AVARLKSMNKSAINQYN [SNF2] | 1.81 ± 0.073 | 2.33 ± 0.076 | 2.34 ± 0.052 | 2.88 ± 0.032
33 | AVCSTATVVSTNHSAAA [PGD1] | 2.85 ± 0.064 | 3.02 ± 0.077 | 2.59 ± 0.096 | 2.91 ± 0.061
34 | AVDLEHHDYRSYYGIVC [RRP6] | 2.5 ± 0.067 | 2.77 ± 0.049 | 2.37 ± 0.083 | 2.97 ± 0.038
35 | AVEFESVPLRKGDRALL [BRR2] | 3.16 ± 0.29 | 3.45 ± 0.14 | 2.98 ± 0.075 | 2.87 ± 0.11
36 | AVTHNLYYDEDINVESL [PUP2] | 3.16 ± 0.11 | 3.25 ± 0.088 | 3.05 ± 0.18 | 2.89 ± 0.06
37 | AVVQTVKGLLNTYKRLV [YJL039C/NUP192] | 1.8 ± 0.11 | 2.37 ± 0.085 | 1.92 ± 0.14 | 2.45 ± 0.083
38 | AYIKLLDQTKDTRITHL [SNF2] | 2.65 ± 0.085 | 3.03 ± 0.072 | 2.78 ± 0.06 | 2.39 ± 0.062
39 | AYILAAQKTSFEYEGVQ [RPN1] | 2.39 ± 0.072 | 2.35 ± 0.079 | 2.2 ± 0.15 | 2.23 ± 0.08
40 | AYPAAREQFLNAQDIDH [FAS1] | 3.13 ± 0.082 | 3.15 ± 0.11 | 2.84 ± 0.11 | 3.21 ± 0.054
41 | AYSNTNTNTENENRNTG [SNF11] | 3.1 ± 0.14 | 2.95 ± 0.065 | 2.95 ± 0.071 | 2.95 ± 0.072
42 | CDILVATPGRLIDSLEN [PRP28] | 3.54 ± 0.12 | 3.24 ± 0.11 | 3.2 ± 0.06 | 3.22 ± 0.065
43 | CEQQPSQEREFSLLVKA [SIN4] | 3.01 ± 0.077 | 3.07 ± 0.08 | 2.94 ± 0.054 | 3.04 ± 0.045
44 | CERRSTLKLQDTRITPS [PRE6] | 2.53 ± 0.061 | 2.81 ± 0.092 | 3.09 ± 0.099 | 2.82 ± 0.059
45 | CFICLLHLANEHGLQIT [BRN1] | 2.54 ± 0.12 | 2.81 ± 0.17 | 2.61 ± 0.17 | 2.87 ± 0.087
46 | CHLYSQRMHAIHEIDER [NNF1] | 1.24 ± 0.082 | 1.64 ± 0.065 | 1.8 ± 0.1 | 1.63 ± 0.073
47 | CHSKLRGQQVENPTDNF [GRR1] | 2.86 ± 0.22 |  |  | 
48 | CIECQPKAMTDTDNECV [HRT1] | 3.26 ± 0.097 | 3.25 ± 0.093 | 2.94 ± 0.11 | 3.32 ± 0.062
49 | CINKWIKTRDACPLDNQ [HRT1] | 3.16 ± 0.093 | 3.03 ± 0.079 | 2.72 ± 0.078 | 3.17 ± 0.05
50 | CKRELAFVKQKNDSLEK [YIL149C/MLP2] | 3.26 ± 0.16 | 3.33 ± 0.17 |  | 3.43 ± 0.19
51 | CLDRCKEQYNRYRDLMI [MTR3] | 2.64 ± 0.074 | 2.62 ± 0.046 | 2.69 ± 0.054 | 2.88 ± 0.063
52 | CNNINKGLKENDVAVEK [BRR2] | 3.17 ± 0.12 | 3.68 ± 0.18 | 3.25 ± 0.09 | 3.43 ± 0.12
53 | CQLQNSDNSEEEEVDID [RRP43] | 3.2 ± 0.077 | 3.22 ± 0.065 | 3.02 ± 0.08 | 3.13 ± 0.056
54 | CRELHNKHLTTLVEIFL [SSN3] | 1.59 ± 0.04 | 2.03 ± 0.045 | 1.82 ± 0.065 | 1.7 ± 0.04
